B2: human IL-25 expressed with a C-terminal myc-myc-hexahistidine tag (ligand)
chain: YSHWPSCCPSKGQDTSEELLRWSTVPVPPLEPARPNRHPESCRASEDGPLNSRAISPWRYELDRDLNRLPQDLYHARCLCPHCVSLQTGSHMDPRGNSELLYHNQTVFYRRPCHGEKGTHKGYCLERRLYRVSLACVCVRPRVMGEQKLISEEDLGGEQKLISEEDLHHHHHH
B3: monkey IL-25 expressed with a C-terminal myc-myc-hexahistidine tag (ligand)
chain: YSHWPSCCPSKGYPSEELLRWSTVPVPPLKPASLDFHSVSCRASEDGPLNSRAISPWRYELDRDLNRLPQDLYHARCLCPHCVSLQTGSHMDPRGNSELLYHNQTVFYRRPCHGKKGNHKGYCLERRLYRVSLACVCVRPRVMGEQKLISEEDLGGEQKLISEEDLHHHHHH
B4: mouse IL-25 expressed with a C-terminal myc-myc-hexahistidine tag (ligand)
chain: VSLRIQEGCSHLPSCCPSKEQEPPEEWLKWSSASVSPPEPLSHTHHAESCRASKDGPLNSRAISPWSYELDRDLNRVPQDLYHARCLCPHCVSLQTGSHMDPLGNSVPLYHNQTVFYRRPCHGEEGTHRRYCLERRLYRVSLACVCVRPRVMAEQKLISEEDLGGEQKLISEEDLHHHHHH

Legend:
[1] = biological target: B2; experiment: BLI Octet, hIL-25-MMH captured on anti-Penta-His sensor, 25C
Experimental: Binding competition between anti-IL-25 monoclonal antibodies was determined using a real time, label-free bio-layer interferometry assay on an Octet QK384 biosensor (Pall ForteBio Corp.).
The biosensors were washed in HBST kinetics buffer in between every step of the experiment. The real-time binding response was monitored during the course of the experiment and the binding response at the end of every step was recorded.

[2] = biological target: B3; experiment: SPR Biacore, antibody captured, 37C;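 on 100 nM Monkey IL-25-MMH Bound (RU): biacore 4000 surface plasmon resonance biosensor measuring binding of IL-25-MMH to purified anti-IL-25 antibodies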;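 on 100 nM Mouse IL-25-MMH Bound (RU): Real-time sensorgrams of IL-25-MMH binding to purified anti-IL-25 antibodies, rate constants obtained by fitting a 1:1 binding model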
Experimental: (§1) Equilibrium dissociation constants (KD values) for IL-25 binding to purified anti-IL-25 antibodies were determined using a real-time surface plasmon resonance biosensor assay on a Biacore 4000 instrument (GE Healthcare). […] All the IL-25 reagents were expressed with a C-terminal myc-myc-hexahistidine tag (referred to herein as “IL-25-MMH”). […] Kinetic association (kₐ) and dissociation (kd) rate constants were determined by fitting the real-time sensorgrams to a 1:1 binding model using Scrubber 2.0c curve fitting software.

[3] = biological target: B4; experiment: SPR Biacore, antibody captured, 37C;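 on 100 nM Monkey IL-25-MMH Bound (RU): biacore 4000 surface plasmon resonance biosensor measuring binding of IL-25-MMH to purified anti-IL-25 antibodies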;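 on 100 nM Mouse IL-25-MMH Bound (RU): Real-time sensorgrams of IL-25-MMH binding to purified anti-IL-25 antibodies, rate constants obtained by fitting a 1:1 binding model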
[4] = biological target: B4; experiment: SPR Biacore, antibody captured, 25C;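 on 100 nM Rat IL-25-MMH Bound (RU): purified anti-IL-25 antibodies were tested by real-time surface plasmon resonance on a Biacore 4000, with rate constants obtained from sensorgram fits to a 1:1 binding model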
Experimental: as §1

[5] = biological target: T1, rat IL-25 expressed with a C-terminal myc-myc-hexahistidine tag (rat); experiment: SPR Biacore, antibody captured, 37C
T1 construct: also called Rat IL-25-MMH
T1 chain: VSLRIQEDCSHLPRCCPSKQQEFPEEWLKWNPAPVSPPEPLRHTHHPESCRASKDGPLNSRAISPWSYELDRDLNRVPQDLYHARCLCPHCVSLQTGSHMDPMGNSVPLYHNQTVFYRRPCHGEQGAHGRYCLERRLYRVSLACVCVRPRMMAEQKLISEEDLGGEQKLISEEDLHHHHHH

[6] = biological target: B2; experiment: cell-based or functional assay
[7] = biological target: B2; experiment: competition ELISA, 2 nM hIL-25-MMH binding to coated hIL-17RB-hFc; (*) below theoretical bottom of the assay
Experimental: (§2) Data analysis was performed using a sigmoidal dose-response model within Prism™ software (GraphPad). […] The absorbance values of the wells containing the highest concentration for each antibody were used to determine the percent maximum blockade.

[8] = biological target: B2; experiment: competition ELISA, 2 nM hIL-25-MMH binding to coated hIL-17RB-hFc
Experimental: as §2

[9] = biological target: T1, rat IL-25 expressed with a C-terminal …; experiment: SPR Biacore, antibody captured, 25C;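 on 100 nM Rat IL-25-MMH Bound (RU): purified anti-IL-25 antibodies were tested by real-time surface plasmon resonance on a Biacore 4000, with rate constants obtained from sensorgram fits to a 1:1 binding model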
Experimental: as §1

[10] = biological target: B2; experiment: cell-based or functional assay
[11] = biological target: B4; experiment: cell-based or functional assay
[12] = biological target: B3; experiment: cell-based or functional assay
[13] = biological target: T2, human IL-25 receptor (IL-17RA/IL-17RB) on HEK293/NFκB-luc/hIL17RA/hIL17RB/hAct1 cells (human, UniProt Q96F46 33-866; Q9NRM6 18-502); experiment: cell-based or functional assay
T2 sequence (looked up) 1: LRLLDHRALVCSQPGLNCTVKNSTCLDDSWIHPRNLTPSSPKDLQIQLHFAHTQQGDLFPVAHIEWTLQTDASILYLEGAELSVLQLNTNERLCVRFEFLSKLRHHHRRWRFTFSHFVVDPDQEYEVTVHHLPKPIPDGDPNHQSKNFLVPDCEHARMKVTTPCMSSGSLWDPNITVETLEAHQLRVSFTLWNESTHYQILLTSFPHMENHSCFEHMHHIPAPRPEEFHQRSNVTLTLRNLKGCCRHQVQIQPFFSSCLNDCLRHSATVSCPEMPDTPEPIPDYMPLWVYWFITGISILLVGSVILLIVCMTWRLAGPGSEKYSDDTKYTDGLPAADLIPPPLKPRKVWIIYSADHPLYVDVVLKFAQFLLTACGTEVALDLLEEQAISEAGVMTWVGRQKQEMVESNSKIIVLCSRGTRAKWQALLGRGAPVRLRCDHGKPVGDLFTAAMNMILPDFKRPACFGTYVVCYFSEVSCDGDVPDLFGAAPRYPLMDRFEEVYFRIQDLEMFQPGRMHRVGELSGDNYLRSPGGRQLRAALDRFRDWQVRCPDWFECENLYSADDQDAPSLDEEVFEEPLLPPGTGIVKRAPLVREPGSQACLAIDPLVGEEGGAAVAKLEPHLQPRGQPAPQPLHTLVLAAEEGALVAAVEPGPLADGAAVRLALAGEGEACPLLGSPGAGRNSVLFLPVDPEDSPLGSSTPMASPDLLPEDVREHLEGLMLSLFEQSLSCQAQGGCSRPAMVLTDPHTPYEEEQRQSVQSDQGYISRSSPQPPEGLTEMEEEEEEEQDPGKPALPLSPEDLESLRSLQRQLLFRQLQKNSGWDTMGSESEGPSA
T2 sequence (looked up) 2: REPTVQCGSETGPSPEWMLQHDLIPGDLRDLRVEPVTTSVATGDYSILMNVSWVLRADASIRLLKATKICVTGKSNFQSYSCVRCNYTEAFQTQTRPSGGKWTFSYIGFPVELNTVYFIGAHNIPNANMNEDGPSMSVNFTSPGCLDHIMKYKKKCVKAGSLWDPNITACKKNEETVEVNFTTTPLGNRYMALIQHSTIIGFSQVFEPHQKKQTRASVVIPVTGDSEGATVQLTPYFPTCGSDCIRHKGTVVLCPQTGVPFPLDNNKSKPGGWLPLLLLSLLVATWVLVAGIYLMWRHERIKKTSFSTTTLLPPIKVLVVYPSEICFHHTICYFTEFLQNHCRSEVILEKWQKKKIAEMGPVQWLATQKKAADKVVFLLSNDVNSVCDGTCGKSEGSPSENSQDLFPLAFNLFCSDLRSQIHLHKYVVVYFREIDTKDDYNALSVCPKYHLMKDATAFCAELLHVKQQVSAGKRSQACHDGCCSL

B1: H4H10876P (antibody, human IgG4, V domains shown)
VH: QVQLVQSGAEVKKPGASVKVSCKASEYTFSNYGISWVRQAPGQGLEWLGWIGAYSGFTKYAQKVQDRITMTTDASTTTAYMELRNLRSDDTAVYYCARVGTGTDSYFDFWGQGTLVTVSS
VL: DIQMTQSPSSLSASVGDRVTITCRASQNINSHLNWYQQKPGKAPKLLIYTASSLQSGVPLRFSGSGSGTDFTLTISSLQPEDFGIYICQQTYITPLTFGGGTKVEIK
notes: H4H prefix = human IgG4 Fc
Question: B1 was tested. Which “50 ug/mL mAb-1 Binding (nm)” value [1] did it give?
Answer: The value was 1.07 nm.

Question: What about the “100 nM Monkey IL-25-MMH Bound (RU)” value [2] of the same binder?
Answer: Its value is 64 RU.

Question: What about the Kd [2] of the same binder?
Answer: The Kd was 104 pM.

Question: And the koff [2]?
Answer: The koff was 5.45e-05 s⁻¹.

Question: And the kon [2]?
Answer: Its kon is 524000 M⁻¹ s⁻¹.

Question: And the t½ [2]?
Answer: The t½ was 3.53 h.

Question: And the “100 nM Mouse IL-25-MMH Bound (RU)” value [3]?
Answer: The value was 51 RU.

Question: And the Kd [3]?
Answer: Its Kd is 243 pM.

Question: And the koff [3]?
Answer: Its koff is 8.97e-05 s⁻¹.

Question: What about the kon [3] of the same binder?
Answer: The kon was 369000 M⁻¹ s⁻¹.

Question: What about the t½ [3] of the same binder?
Answer: The t½ was 2.15 h.

Question: What about the “100 nM Mouse IL-25-MMH Bound (RU)” value [4] of the same binder?
Answer: Its value is 40 RU.

Question: And the Kd [4]?
Answer: Its Kd is 570 pM.

Question: And the koff [4]?
Answer: Its koff is 9.89e-05 s⁻¹.

Question: And the kon [4]?
Answer: Its kon is 174000 M⁻¹ s⁻¹.

Question: And the t½ [4]?
Answer: Its t½ is 1.95 h.

Question: What about the “100 nM Rat IL-25-MMH Bound (RU)” value [5] of the same binder?
Answer: Its value is 53 RU.

Question: And the Kd [5]?
Answer: The Kd was 238 pM.

Question: And the koff [5]?
Answer: The koff was 0.000107 s⁻¹.

Question: And the kon [5]?
Answer: Its kon is 450000 M⁻¹ s⁻¹.

Question: And the t½ [5]?
Answer: The t½ was 1.8 h.

Question: What about the “IC50 values of antibodies for blocking IL-5 release from Donor #727058-059” value [6] of the same binder?
Answer: The value was 172 pM.

Question: And the “IC50 values of antibodies for blocking IL-5 release from Donor #727060” value [6]?
Answer: The value was 130 pM.

Question: What about the IC50 [7] of the same binder?
Answer: Its IC50 is 650 pM.

Question: And the “% Maximum blocking of 200 nM antibody” value [8]?
Answer: Its value is 89%.

Question: What about the “100 nM Rat IL-25-MMH Bound (RU)” value [9] of the same binder?
Answer: The value was 45 RU.

Question: What about the Kd [9] of the same binder?
Answer: Its Kd is 341 pM.

Question: And the koff [9]?
Answer: The koff was 8.81e-05 s⁻¹.

Question: And the kon [9]?
Answer: Its kon is 259000 M⁻¹ s⁻¹.

Question: What about the t½ [9] of the same binder?
Answer: Its t½ is 2.18 h.

Question: And the “IC50, luciferase reporter cells, 5 pM hIL-25-MMH” value [10]?
Answer: Its value is 4.6e-10 M.

Question: And the “IC50, luciferase reporter cells, 10 pM mIL-25-MMH” value [11]?
Answer: Its value is 8.8e-10 M.

Question: What about the “IC50, luciferase reporter cells, 12 pM MfIL-25-MMH” value [12] of the same binder?
Answer: The value was 2.1e-10 M.

Question: Which results are given for B2?
Answer: EC50, NFκB-luciferase activation of HEK293/NFκB-luc/hIL17RA/hIL17RB/hAct1 cells (first assay day) [13]: 2.9 pM; EC50, NFκB-luciferase activation of HEK293/NFκB-luc/hIL17RA/hIL17RB/hAct1 cells (second assay day) [13]: 16 pM

Question: B3 was tested. Which “EC50, NFκB-luciferase activation of HEK293/NFκB-luc/hIL17RA/hIL17RB/hAct1 cells” value [13] did it give?
Answer: Its value is 19 pM.

Question: Which “EC50, NFκB-luciferase activation of HEK293/NFκB-luc/hIL17RA/hIL17RB/hAct1 cells” value [13] does the source give for B4 here?
Answer: Its value is 8.4 pM.
